# According to the DeepSol protein solubility set:
# Assay: soluble on expression in E. coli; label from the status in PepcDB or PDB records
row,Sequence,soluble on expression in E. coli
1,MAEIIFNLSADDEGIGKHNYLCSLISQQSARCISGYVFSSSGFGESTTDVVFAGNGLIYENGYLLARSERFCMEEQLIINEIDVECIRAERRVNTTFAANKANCPGKEAVRISTEFVNSKDLNLTRTFNPHPFVPQGNELNSRLEHHHHHH,not soluble
2,MAELQMLLEEEIPGGRRALFDSYTNLERVADYCENNYIQSADKQRALEETKAYTTQSLASVAYLINTLANNVLQMLDIQASQLRRMESSINHISQTVDIHKEKVARREIGILTTNKNTSRTHKIIAPANLERPVRYIRKPIDYTILDDIGHGVKVSTQNMKMGGLPRTTPPTQKPPSPPMSGKGTLGRHSPYRTLEPVRPPVVPNDYVPSPTRNMAPSQQSPVRTASVNQRNRTYSSSGSSGGSHPSSRSSSRENSGSGSVGVPIAVPTPSPPSVFPGHPVQFYSMNRPASRHTPPTIGGSLPYRRPPSITSQTSLQNQMNGGPFYSQNPVSLAPPPPSILQVTPQLPLMGFVARVQENISDTPPPPPPVEEPVFDESPPPPPPPEDYEEEEAAVVEYSDPYAEEDPPWAPRSYLEKVVAIYDYTKDKEDELSFQEGAIIYVIKKNDDGWYEGVMNGVTGLFPGNYVESIMHYSE,soluble
3,MAENKQASEGLAEDLIRSMVQTASIELHLKTLVEKRQSEMDNGLIDTNDFNRVNEQIDVLKNLKEELFEVTEQRRQDMRTLFDLFEGKGDKEQWCIVKHAAMAMYTAFEAWQASDNDRLLYQICIEKNAYFIKKITQFTGVPITECASCFSDMMKGAIDDEG,not soluble
4,MAERGGDGGESERFNPGELRMAQQQALRFRGPAPPPNAVMRGPPPLMRPPPPFGMMRGPPPPPRPPFGRPPFDPNMPPMPPPGGIPPPMGPPHLQRPPFMPPPMSSMPPPPGMMFPPGMPPVTAPGTPALPPTEEIWVENKTPDGKVYYYNARTRESAWTKPDGVKVIQQSELTPMLAAQAQVQAQAQAQAQAQAQAQAQAQAQAQAQAQAQAQAQAQAQAQAQAQAQAQAQAQAQAQAQAQVQAQVQAQVQAQAVGASTPTTSSPAPAVSTSTSSSTPSSTTSTTTTATSVAQTVSTPTTQDQTPSSAVSVATPTVSVSTPAPTATPVQTVPQPHPQTLPPAVPHSVPQPTTAIPAFPPVMVPPFRVPLPGMPIPLPGVLPGMAPPIVPMIHPQVAIAASPATLAGATAVSEWTEYKTADGKTYYYNNRTLESTWEKPQELKEKEKLEEKIKEPIKEPSEEPLPMETEEEDPKEEPIKEIKEEPKEEEMTEEEKAAQKAKPVATAPIPGTPWCVVWTGDERVFFYNPTTRLSMWDRPDDLIGRADVDKIIQEPPHKKGMEELKKLRHPTPTMLSIQKWQFSMSAIKEEQELMEEINEDEPVKAKKRKRDDNKDIDSEKEAAMEAEIKAARERAIVPLEARMKQFKDMLLERGVSAFSTWEKELHKIVFDPRYLLLNPKERKQVFDQYVKTRAEEERREKKNKIMQAKEDFKKMMEEAKFNPRATFSEFAAKHAKDSRFKAIEKMKDREALFNEFVAAARKKEKEDSKTRGEKIKSDFFELLSNHHLDSQSRWSKVKDKVESDPRYKAVDSSSMREDLFKQYIEKIAKNLDSEKEKELERQARIEASLREREREVQKARSEQTKEIDREREQHKREEAIQNFKALLSDMVRSSDVSWSDTRRTLRKDHRWESGSLLEREEKEKLFNEHIEALTKKKREHFRQLLDETSAITLTSTWKEVKKIIKEDPRCIKFSSSDRKKQREFEEYIRDKYITAKADFRTLLKETKFITYRSKKLIQESDQHLKDVEKILQNDKRYLVLDCVPEERRKLIVAYVDDLDRRGPPPPPTASEPTRRSTK,soluble
5,MAEVVNISKSASFSKQEKEFSDFQKSKESNEKILNKESNRFTLHPIMYPEVWNFYKKAEASFWTAEEIDLSSDLKDFEKLNVNEKHFIKHVLAFFAASDGIVLENLASKFLREVEIIEAKKFYSFQIAVENIHSETYSLLIDNYIKDEKERLNLFHAIENIPAIKNKALWAAKWINDTNSFAERIVANACVEGILFSGSFCAIFWFKKQNKLHGLTFSNELISRDEGLHTDFNCLIYSLLENKLPENVVQNIVKEAVEVERSFICESLPCDLIGMNSRLMSQYIEFVADRLLECLGCSKVFHSKNPFNWMDLISLQGKTNFFEKRVADYQKSGVMAQRKEQVFSLNTDF,soluble
6,MAFAKDLKRRNVLQEAVYHRIKADFDLGAQAAVRTVKKVCDAYATFKANLRAGNYGLEGSKRRIKAESKPVRFRETSAQPFDDRMLTWNLDTKMVSVWTVAGRLKGIPFVCSPEAMRLLAQRKGESDLVMRDGMFFLLATIDIPEPEVSGPDGFLGVDLGIVNIATTSDGRIMSSRQVNRYRQRKRDLRGKLQKKRTKSAARVLKRQRRKEARYATQRNHIIARKLVHTAERTSRGIGLEDLTGIRQRVTAREDQRARLHSWAFAQLGAFVEYKAKRAGVAVVHVDPRNTSRQCSECWHTHRTNRVTRARFVCRSCGIVLHADHNGSRNIAHRADAAWQRGAANRPRTPAAALEHHHHHH,not soluble
7,MAFEKIIQLKNCRYDYTLSPSVKKFTLKDNTFFETKVGNYELTRLLEKVPNSGEGFQLKIIINKELTGAKINITDKFGLRLVDIFKSEDHHIHQEKFYFLMDSLVERGVFTKSER,not soluble
8,MAFKLPNLPYAYDALEPYIDQRTMEFHHDKHHNTYVTKLNATVEGTELEHQSLADMIANLDKVPEAMRMSVRNNGGGHFNHSLFWEILSPNSEEKGGVIDDIKAQWGTLDEFKNEFANKATTLFGSGWTWLVVNDGKLEIVTTPNQDNPLTEGKTPILLFDVWEHAYYLKYQNKRPDYMTAFWNIVNWKKVDELYQAAK,not soluble
9,MAFRMSRDHADFVAHGGTEWDDGAFVNVKKIKIFHDWAGITLVQFDYIDGTGAIVSGLDHGTEPFQFDREHGRVPVEGARAEFWLRDDEYITIVTAFGGYCVRKIEFITNKRTFDFGGFN,soluble
10,MAFSVAYDLIPNKLIKDIDEMNQWLHDKINRAVYLVGFATQQSDYEYKLYELFKALDELEERLKKQLFLFGNQLTESDLYLLATLERFDNIYFCLFKCSLKRIADYPALFRYHNQLRGMESLASTYQPVLTKEHYFMSTMHVLGLEHHHHHH,not soluble
11,MAFTESDVYNNEAFFKQYMKRRYRENSPNELIEKPAFFQLIGDVKGKKILDLGCGDAIFGKELLEKDCHSYTGIEGSELMYEKAKKQLENKNGIVHFLNLKDYTYPPATFDLVTSRLALHYIEHLPIIFQNVYETLKTNGTFTFSVQHPVITSSFESLQTSGKRTSWLVDDYFKTGKRVEPWIDQKVIKYHRTTEEYFTLLQQAGFTITNLKEATPNQTYFQSAEEYERRLRIPLFLLFSCRKLEHHHHHH,soluble
12,MAGAITHDHAAAAQGRQGGPLIVTEDVELLDDLLRLCAAAGARPEVHHTVPDGRGTWEAAPLVLVGDDAARRVRGAARRRGVVLVGRDQDDSGVWRRAVEIGADHVLLLPDGEQWLVDRIADVAEGVGRPALTVGVIGGRGGAGASTLACALAVTSARQGRRTLLVDADPLGGGLDVLLGGETAEGLRWPAFAASRGRVGGGALEESLPELHALRVLSWDRGDAVAVPPQAVRAVLAAARRRGGAVVVDLPRRVDEGAAEALAQVDLGVLVVPAELRAIAAAARVASAAGMVLGDLRVAVRGPYAPGLDDREVARLLGLPLLGEVPAEPPVPDGGVPPGGAARGPLARFCAVFWDRALVEAGGVLEHHHHHH,not soluble
13,MAGAMRKMAVYLGLVEDDGYDGRGFDPDDDFEPELDPEPERDHRRHEPAHQSHGAHQSQRDEEVRVVQPPAQREPMPRAASLAAESSRPARIAPVASITQERASLEKSAPVIMPKVVSEREPYRITTLHPRTYNEARTIGEHFREGTPVIMNLTEMDDTDAKRLVDFAAGLVFGLHGSIERVTQKVFLLSPANVDVTAEDKARIAEGGFFNQSLEHHHHHH,not soluble
14,MAGDGSLVASFGDIDRATTVTTIVAGVGSSNPEGWNTYVDRARTVSASTGSATVLWLGYQAPASIPAAVSGAAANRAAADLQRFQAALQSRNPHQRKVVMGYSYGSTVVGKAASSGELSADALVLVGSPGAGVSHSSQLGAPVYAVTGSADPIGFAGTQYDGIHGTDPTAALFGATVWDSPSTHSGYWNDQEFLGNVAEVVRGKLEHHHHHH,not soluble
